Positions count from the first letter of the chain named.

Broadly, the Kd is the free concentration of one partner at which half of the binding sites on the other are occupied at equilibrium, for simple one-to-one binding. Lower therefore signals tighter binding.

Holding throughout (experiment): MST; Monolith NT.115; 8.32 nM His-tagged DHS labelled with RED-tris-NTA, eIF5A titrated 0.00175-57.5 uM; 50 mM Tris, 200 mM NaCl, 5 mM beta-ME pH 8; free buffer
What all share (conditions): both partners purified

The target of assay [1] is T1, deoxyhypusine synthase E137A, His-tagged (human, UniProt P49366 1-369, E137A).
T1 construct: deoxyhypusine synthase (DHS), Homo sapiens, UniProt P49366, residues 1-369; source: E. coli, purified; His-tagged protein labelled with RED-tris-NTA for MST; not shown: His6, N-terminal, kept
T1 sequence (looked up): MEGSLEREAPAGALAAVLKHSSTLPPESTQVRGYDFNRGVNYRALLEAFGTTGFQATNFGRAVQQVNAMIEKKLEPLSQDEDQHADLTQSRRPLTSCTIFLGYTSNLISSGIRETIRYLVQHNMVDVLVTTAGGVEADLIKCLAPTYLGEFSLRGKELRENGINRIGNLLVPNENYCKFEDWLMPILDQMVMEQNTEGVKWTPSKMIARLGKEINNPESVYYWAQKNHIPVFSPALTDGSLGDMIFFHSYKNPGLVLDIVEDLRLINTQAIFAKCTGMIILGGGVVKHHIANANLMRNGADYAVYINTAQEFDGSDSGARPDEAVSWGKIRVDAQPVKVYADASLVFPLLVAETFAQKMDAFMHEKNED

The target of assay [2] is T2, deoxyhypusine synthase N173S, patient-derived variant, His-tagged (human, UniProt P49366 1-369, N173S).
T2 construct: deoxyhypusine synthase (DHS), Homo sapiens, UniProt P49366, residues 1-369, pathological variant N173S; also called DHS^N173S; source: E. coli, purified from the soluble fraction; His-tagged protein labelled with RED-tris-NTA for MST; not shown: His6, N-terminal, kept
T2 sequence (looked up): T1 sequence (looked up) with A137E, N173S

Assay [3] concerns the target T3, deoxyhypusine synthase D243A, His-tagged (human, UniProt P49366 1-369, D243A).
T3 construct: deoxyhypusine synthase (DHS), Homo sapiens, UniProt P49366, residues 1-369; source: E. coli, purified; His-tagged protein labelled with RED-tris-NTA for MST; not shown: His6, N-terminal, kept
T3 sequence (looked up): T1 sequence (looked up) with A137E, D243A

B1: eukaryotic translation factor 5A-1 (eIF5A-1), residues 15-151 (domain or fragment)
chain: not shown
notes: eIF5A1 (eukaryotic translation factor 5A-1), human, residues 15-151, from pET28-MHL (Addgene); The general purification removes the His tag with TEV; A His-tagged eIF5A1 was used only in the hypusination assay; source: E. coli, purified (HisTrap, TEV cleavage, reverse HisTrap, SEC); not shown: His tag, N-terminal, cleaved
For the molecule B1, the Kd in assay [1] was > 1000 nM; in assay [2] it was 115 ± 22.3 nM; in assay [3], 511 ± 182 nM.

(Values after publication PMC10042821, “Cryo-EM structure of human eIF5A-DHS complex reveals the molecular basis of hypusination-associated neurodegenerative disorders” (Nature Communications, 2023).)
